Source: patent US20220411532A1 (GUNDERSEN LUTHERAN MEDICAL FOUNDATION, published 2022)

T1: cleaved amphiregulin (cell-associated transmembrane stalk left after TACE/ADAM17 cleavage of human AREG) (human, UniProt P15514 188-252)
T1 construct: Endogenous protein on MCF7 cells and in formalin-fixed human tumor tissue; also called cleaved AREG; cell surface cleaved AREG
T1 sequence: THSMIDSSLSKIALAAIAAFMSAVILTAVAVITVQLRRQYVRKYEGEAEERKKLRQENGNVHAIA

T2: peptide representing uncleaved AREG (human)
T2 construct: also called full length AREG peptide; intact AREG
T2 peptide: SMKTHSMIDSSLSKIAC


Columns and labels:
[1] = biological target: T1, cleaved amphiregulin (cell-associated …); experiment: live-cell fluorescence imaging of MCF-7 cells with 1A3-pHrodo
Description: In order to study internalization, 1A3 was conjugated with pHrodo iFL Red dye using pHrodo iFL Red Microscale Protein Labeling Kit (P36014, Thermo Fisher Scientific). MCF7 cells were seeded in 12 mm Nunc Glass Bottom Dish, at a density of 1×10⁵ cells/dish. After allowing the cells to attach overnight, the cells were incubated for 60 min with […] Hoechst dye for nuclei staining and LysoTracker® Green DND-26 (Thermo Fisher Scientific) for lysosomal labeling. The cells were then incubated with 1A3-pHrodo (2 μg/mL) for 20 min at 37° C. After washing the wells with PBS, the cells were supplemented with 1× live-cell imaging solution (Molecular probes, Thermo Fisher Scientific). Fluorescence images were acquired at 30 min intervals for 2.5 h with the Olympus 1X71 inverted fluorescence microscope (Olympus, Shinjuku, Tokyo, Japan). TAPI-2 (20 μM)—pre-treatment was performed overnight, with DMSO serving as a control.

[2] = biological target: T2, peptide representing uncleaved AREG; experiment: ELISA on peptides representing cleaved and uncleaved AREG
[3] = biological target: T1, cleaved amphiregulin (cell-associated …); experiment: immunohistochemistry on a breast tumor tissue micro-array, 10 µg/mL antibody
Description: A breast disease spectrum tissue micro-array was purchased from US Biomax Inc. (Derwood, Md., USA). The slides were deparaffinized in xylene and rehydrated by serial incubations in graded ethanol and then in water in a Histo-Tek® SL Slide Stainer (Sakura Finetek USA, Inc., Torrance, Calif., USA). Antigen retrieval was performed in a steamer by boiling slides in a container of citrate buffer (pH 6.0) for 20 min, which was then removed for 15 min of cooling on the benchtop. Slides were washed in 1× Wash buffer (Dako Agilent, Santa Clara, Calif., USA) and endogenous peroxidase was quenched by incubating with Dako Dual Endogenous Enzyme Block (S2003) for 10 min. […] Slides were washed four times in 1× Wash buffer, followed by the incubation for 45 min at room temperature in 1:100 dilution of […] immunoglobulins/HRP (Dako, P0160 or ready-to-use goat anti-rabbit HRP labeled polymer (Dako, K4003). The slides were washed twice in 1× Wash buffer and the color was developed with 3,3-diaminobenzidine tetrahydrochloride substrate chromogen system (K3468, DAKO, Santa Clara, Calif., USA). Sections were washed with water and counterstained with hematoxylin, rinsed with water, dehydrated by serial ethanol washes to 100%, cleared and mounted in Permount (Thermo Fisher Scientific). […]

Row | binding result [1] | binding result [2] | binding result [3] | Binder
1 | binds | – | – | 1A3 conjugated with pHrodo iFL Red dye (antibody, V domains shown, pHrodo iFL Red dye conjugated to the antibody; positions not given, also called 1A3-pHrodo; 1A3 pHrodo) VH: QSVKESEGRLVTPGTPLRLTCTVAGYSLSRYHMCWVRQAPGKGLEWIGMIGGSGRTDYASWAKGRFTISKTSTTVDLKITSPTTEDTATYFCSTVYTDSDGDFWGPGTLVTVSS VL: ELDMTQTPSSKSVPVGGTVTINCQASESVYSNDRLAWFQQKPGQPPKLLIYYASTLASGVPSRFKGSGSGTQFTLTISDLECADAATYYCQSCYDMSSYGVAFGGGTELEIL
2 | – | no binding | binds | GMF-1A3 rabbit monoclonal IgG antibody (antibody, V domains shown, also called anti-cleaved-AREG 1A3 antibody; unconjugated 1A3) VH: QSVKESEGRLVTPGTPLRLTCTVAGYSLSRYHMCWVRQAPGKGLEWIGMIGGSGRTDYASWAKGRFTISKTSTTVDLKITSPTTEDTATYFCSTVYTDSDGDFWGPGTLVTVSS VL: ELDMTQTPSSKSVPVGGTVTINCQASESVYSNDRLAWFQQKPGQPPKLLIYYASTLASGVPSRFKGSGSGTQFTLTISDLECADAATYYCQSCYDMSSYGVAFGGGTELEIL
3 | – | no binding | – | GMF-3E4 rabbit monoclonal IgG antibody (antibody, V domains shown) VH: QSVKESEGRLVTPGTPLTLTCTVSGFSLSDYWMSWVRQAPGKGLEWIGIAGYSDNTYYASRAKGRFTISKTSTTVVLKITRPTTEDTATYFCVRDLYGVYSSGTTLWGPGTLVTVSS VL: ELVMTQTPSPVSAAVGGTVTISCQSSQSVYNNNRLAWFQQKPGQPPKLLIYYASTLASGVSSRFKGSGSGTQFTLIISDVVCDDAATYYCQGYYSGGITGFGGGTEVVVK
